# Assay results taken from article PMC5750462 (Emerging Microbes & Infections, 2017).
# B1: recombinant N1-165-domain of wild-type (wt) matrix protein 1 (M1), influenza A virus A/WSN/33 (domain or fragment)
# chain: MSLLTEVETYVLSIVPSGPLKAEIAQRLEDVFAGKNTDLEVLMEWLKTRPILSPLTKGILGFVFTLTVPSERGLQRRRFVQNALNGNGDPNNMDKAVKLYRKLKREITFHGAKEIALSYSAGALASCMGLIYNRMGAVTTEVAFGLVCATCEQIADSQHRSHRQM
# Molecular target: the molecule itself
# Assay: BLI; […] (PBS, 0.01% BSA, 0.002% Tween-20); […]
protein,measurement,value
B1,binding result,binds
